{"source": "patent US20150010572A1", "about": "(SAMSUNG ELECTRONICS, published 2015)", "binders": {"B1": {"name": "SAIT-Ang-2-AB-m7F8 (antibody, V domains shown)", "VH": "DVQLQESGPGLVKPSQSLSLTCTVTGYSITSDYAWNWIRQFPGNKLEWMGYISYSGSTSYNPSLKSRISITRDTSKNQFFLQLNSVTPEDTATYYCARSTFGHYVSSMDYWGQGTSVTVSS", "VL": "SIVMTQTPKLLLVSAGDRVTITCKASQSASNDVAWYQQKPGQSPKLLIYYASNRYTGVPDRFTGSGYGTDFTFAISTVQAEDLAIYFCQQDYSSPPTFGGGTKLEIK"}, "B2": {"name": "FLAG-tagged hAng-2 (ligand)", "chain": "DYKDDDDKYNNFRKSMDSIGKKQYQVQHGSCSYTFLLPEMDNCRSSSSPYVSNAVQRDAPLEYDDSVQRLQVLENIMENNTQWLMKLENYIQDNMKKEMVEIQQNAVQNQTAVMIEIGTNLLNQTAEQTRKLTDVEAQVLNQTTRLELQLLEHSLSTNKLEKQILDQTSEINKLQDKNSFLEKKVLAMEDKHIIQLQSIKEEKDQLQVLVSKQNSIIEELEKKIVTATVNNSVLQKQQHDLMETVNNLLTMMSTSNSAKDPTVAKEEQISFRDCAEVFKSGHTTNGIYTLTFPNSTEEIKAYCDMEAGGGGWTIIQRREDGSVDFQRTWKEYKVGFGNPSGEYWLGNEFVSQLTNQQRYVLKIHLKDWEGNEAYSLYEHFYLSSEELNYRIHLKGLTGTAGKISSISQPGNDFSTKDGDNDKCICKCSQMLTGGWWFDACGPSNLNGMYYPQRQNTNKFNGIKWYYWKGSGYSLKATTMMIRPADF", "notes": "also called FLAG-Ang-2"}}, "key": {"[1]": {"biological_target": "T1, Ang-2 (R&D systems; 623-AN-025/CF) (human, UniProt O15123 19-496)", "T1 sequence": "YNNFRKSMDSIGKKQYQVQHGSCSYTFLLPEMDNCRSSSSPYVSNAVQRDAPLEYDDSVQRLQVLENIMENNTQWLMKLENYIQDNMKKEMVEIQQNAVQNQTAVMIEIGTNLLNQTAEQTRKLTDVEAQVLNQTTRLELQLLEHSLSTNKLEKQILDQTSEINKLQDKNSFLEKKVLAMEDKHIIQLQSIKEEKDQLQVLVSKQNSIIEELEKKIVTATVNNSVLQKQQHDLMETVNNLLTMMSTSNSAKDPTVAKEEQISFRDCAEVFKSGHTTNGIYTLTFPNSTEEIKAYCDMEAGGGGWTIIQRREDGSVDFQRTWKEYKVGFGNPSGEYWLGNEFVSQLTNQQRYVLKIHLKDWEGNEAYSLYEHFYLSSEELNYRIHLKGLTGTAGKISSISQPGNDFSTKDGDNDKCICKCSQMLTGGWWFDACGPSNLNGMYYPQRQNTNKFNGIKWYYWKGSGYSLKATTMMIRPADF", "assay": "cell-based or functional assay"}, "[2]": {"biological_target": "mutant Ang-2 protein, A449 substituted with alanine (FLAG-tagged at N-terminal) (human) (UniProt O15123)", "assay": "ELISA, antibody coated, 250 ng FLAG-tagged mutant Ang-2, anti-FLAG-HRP, OD450 relative to native Ang-2"}, "[3]": {"biological_target": "T2, integrin alphaVbeta3 (R&D systems) (human, UniProt P06756 31-992; P05106 27-718)", "T2 construct": "Bought heterodimer coated on an ELISA plate; also called αVβ3; purified alphaVbeta3 protein", "T2 sequence (P06756 31-992 limits assumed, chain 1 of 2)": "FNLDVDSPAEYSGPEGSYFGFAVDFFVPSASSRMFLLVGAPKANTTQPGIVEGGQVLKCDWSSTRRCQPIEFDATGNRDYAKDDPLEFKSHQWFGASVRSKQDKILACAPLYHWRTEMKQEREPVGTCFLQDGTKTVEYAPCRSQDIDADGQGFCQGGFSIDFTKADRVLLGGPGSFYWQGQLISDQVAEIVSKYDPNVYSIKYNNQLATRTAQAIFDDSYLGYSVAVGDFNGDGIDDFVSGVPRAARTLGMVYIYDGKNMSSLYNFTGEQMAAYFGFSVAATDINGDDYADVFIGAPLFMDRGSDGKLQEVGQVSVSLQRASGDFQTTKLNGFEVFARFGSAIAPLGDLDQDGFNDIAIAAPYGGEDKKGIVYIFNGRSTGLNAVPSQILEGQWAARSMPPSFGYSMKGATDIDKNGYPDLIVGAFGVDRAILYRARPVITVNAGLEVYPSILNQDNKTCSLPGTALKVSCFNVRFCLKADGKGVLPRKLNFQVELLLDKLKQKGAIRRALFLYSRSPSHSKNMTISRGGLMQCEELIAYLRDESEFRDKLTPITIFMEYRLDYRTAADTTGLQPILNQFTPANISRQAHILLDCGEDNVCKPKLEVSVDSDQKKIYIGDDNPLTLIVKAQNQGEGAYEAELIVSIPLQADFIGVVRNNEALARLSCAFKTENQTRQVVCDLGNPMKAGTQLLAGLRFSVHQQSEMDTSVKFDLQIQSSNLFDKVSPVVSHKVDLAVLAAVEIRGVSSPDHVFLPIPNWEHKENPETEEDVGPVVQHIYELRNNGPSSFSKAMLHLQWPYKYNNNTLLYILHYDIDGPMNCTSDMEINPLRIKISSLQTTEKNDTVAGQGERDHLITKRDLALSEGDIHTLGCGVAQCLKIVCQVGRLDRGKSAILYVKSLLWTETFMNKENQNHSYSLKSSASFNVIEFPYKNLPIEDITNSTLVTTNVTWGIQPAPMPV", "T2 sequence (P05106 27-718 limits assumed, chain 2 of 2)": "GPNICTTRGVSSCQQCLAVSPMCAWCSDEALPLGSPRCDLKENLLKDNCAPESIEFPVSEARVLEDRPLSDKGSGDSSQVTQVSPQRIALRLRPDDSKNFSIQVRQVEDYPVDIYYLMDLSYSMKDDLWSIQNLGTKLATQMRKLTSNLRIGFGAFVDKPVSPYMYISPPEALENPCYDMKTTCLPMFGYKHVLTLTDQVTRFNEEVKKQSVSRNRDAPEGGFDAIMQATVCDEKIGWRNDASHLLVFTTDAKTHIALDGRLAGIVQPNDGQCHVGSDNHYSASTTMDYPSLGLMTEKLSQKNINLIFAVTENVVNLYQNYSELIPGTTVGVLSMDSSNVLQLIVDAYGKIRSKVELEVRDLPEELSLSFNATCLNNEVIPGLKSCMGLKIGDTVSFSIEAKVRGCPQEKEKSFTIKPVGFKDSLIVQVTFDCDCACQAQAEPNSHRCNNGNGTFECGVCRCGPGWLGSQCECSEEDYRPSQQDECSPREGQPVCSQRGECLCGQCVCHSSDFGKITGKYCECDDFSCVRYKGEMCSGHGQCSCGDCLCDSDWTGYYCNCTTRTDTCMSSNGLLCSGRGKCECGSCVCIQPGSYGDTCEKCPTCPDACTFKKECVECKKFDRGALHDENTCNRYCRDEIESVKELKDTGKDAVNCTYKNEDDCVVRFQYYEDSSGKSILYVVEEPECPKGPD", "assay": "ELISA, integrin coated at 5 ug/ml, FLAG-Ang-2 10 ug/ml, anti-FLAG-HRP", "procedure": "(§1) An ELISA plate was coated with diluting solutions of three kinds of integrin (integrin; alpha5beta1 (α5β1; α5: NCBI Accession No. P08648, β1: NCBI Accession No. P05556), alphaVbeta1 (αVβ1; αV: NCBI Accession No. P06756, β1: NCBI Accession No. P05556), and alphaVbeta3 (αVβ3; αV: NCBI Accession No. P06756, β3: NCBI Accession No. P05106); R&D systems) proteins diluted in PBS at a concentration of 5 μg/ml (18 hours, 4° C.) and then blocked with 1% (v/v) BSA at a room temperature for 1 hour. Thereafter, the plate was treated with Ang-2 protein (FLAG-Ang-2, 0.1 ml of Ang-2 protein solution diluted in PBS at a concentration of 10 μg/ml) tagged with a FLAG sequence ([…], Sigma) at N-terminal, incubated at a room temperature for 2 hours, and washed five times with 0.05% PBST (0.05% (v/v) Tween-20-containing phosphate buffer saline). After that, an anti-FLAG antibody (Sigma) conjugated with horseradish peroxidase (HRP) was added to react, and the plate was washed again five times with PBST. Bindings between Ang-2 and the three kinds of integrins were identified indirectly by measuring the amounts of the anti-FLAG antibody remaining in the ELISA plate via color development reaction using TMB (3,3,5,5-tetramethylbenzidine) as a substrate of HRP. As a negative control, those that were blocked only (treated with BSA only) without Ang-2 protein treatment were used."}, "[4]": {"biological_target": "T3, integrin alpha5beta1 (R&D systems) (human, UniProt P08648 42-995; P05556 21-728)", "T3 construct": "Bought heterodimer coated on an ELISA plate; also called α5β1", "T3 sequence (P08648 42-995 limits assumed, chain 1 of 2)": "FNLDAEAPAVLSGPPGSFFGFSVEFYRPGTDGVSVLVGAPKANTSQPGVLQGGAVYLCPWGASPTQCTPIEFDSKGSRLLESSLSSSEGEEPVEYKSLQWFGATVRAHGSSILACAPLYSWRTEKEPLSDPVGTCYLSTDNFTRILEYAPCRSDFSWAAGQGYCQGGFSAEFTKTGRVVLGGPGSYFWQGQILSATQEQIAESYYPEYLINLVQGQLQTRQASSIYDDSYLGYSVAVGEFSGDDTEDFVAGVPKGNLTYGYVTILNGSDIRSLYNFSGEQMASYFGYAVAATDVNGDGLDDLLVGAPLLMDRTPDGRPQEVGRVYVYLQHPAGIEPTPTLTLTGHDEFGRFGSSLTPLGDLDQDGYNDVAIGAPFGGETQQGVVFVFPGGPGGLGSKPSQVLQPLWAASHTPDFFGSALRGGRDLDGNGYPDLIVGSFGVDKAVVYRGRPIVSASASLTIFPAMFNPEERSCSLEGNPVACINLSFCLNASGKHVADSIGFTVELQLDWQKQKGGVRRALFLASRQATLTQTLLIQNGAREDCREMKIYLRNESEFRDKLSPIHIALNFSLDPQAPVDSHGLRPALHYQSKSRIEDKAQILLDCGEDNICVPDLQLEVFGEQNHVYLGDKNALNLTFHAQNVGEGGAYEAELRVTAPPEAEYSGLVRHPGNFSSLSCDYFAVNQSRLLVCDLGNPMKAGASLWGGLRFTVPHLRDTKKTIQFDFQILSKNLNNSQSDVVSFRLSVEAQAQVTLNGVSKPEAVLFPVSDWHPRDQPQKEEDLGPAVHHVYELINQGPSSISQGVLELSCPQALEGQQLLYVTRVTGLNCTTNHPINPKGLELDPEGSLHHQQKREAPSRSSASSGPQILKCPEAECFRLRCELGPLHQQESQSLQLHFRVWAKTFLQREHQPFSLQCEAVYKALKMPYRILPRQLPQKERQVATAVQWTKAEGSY", "T3 sequence (P05556 21-728 limits assumed, chain 2 of 2)": "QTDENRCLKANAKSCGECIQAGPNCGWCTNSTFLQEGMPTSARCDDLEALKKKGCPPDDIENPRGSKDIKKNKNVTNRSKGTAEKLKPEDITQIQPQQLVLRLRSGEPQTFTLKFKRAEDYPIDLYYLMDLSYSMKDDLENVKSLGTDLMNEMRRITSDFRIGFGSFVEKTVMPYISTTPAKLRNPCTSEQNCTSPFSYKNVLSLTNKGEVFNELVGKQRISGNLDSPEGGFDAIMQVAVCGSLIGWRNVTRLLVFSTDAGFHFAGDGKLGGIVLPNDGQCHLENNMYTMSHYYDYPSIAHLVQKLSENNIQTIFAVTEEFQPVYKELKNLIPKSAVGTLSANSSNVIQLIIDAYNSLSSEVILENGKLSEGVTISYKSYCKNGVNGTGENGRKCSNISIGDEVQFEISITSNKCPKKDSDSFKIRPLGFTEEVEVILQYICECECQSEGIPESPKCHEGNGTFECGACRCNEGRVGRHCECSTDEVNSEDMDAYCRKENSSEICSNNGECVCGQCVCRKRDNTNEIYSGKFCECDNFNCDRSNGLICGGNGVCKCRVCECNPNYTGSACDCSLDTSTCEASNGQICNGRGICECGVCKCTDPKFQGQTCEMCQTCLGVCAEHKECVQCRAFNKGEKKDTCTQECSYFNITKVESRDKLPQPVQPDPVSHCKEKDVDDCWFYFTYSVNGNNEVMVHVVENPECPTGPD", "assay": "ELISA, integrin coated at 5 ug/ml, FLAG-Ang-2 10 ug/ml, anti-FLAG-HRP", "procedure": "as §1"}, "[5]": {"biological_target": "T4, integrin alphaVbeta1 (R&D systems) (human, UniProt P06756 31-992; P05556 21-728)", "T4 construct": "Bought heterodimer coated on an ELISA plate; also called αVβ1", "T4 sequence (P06756 31-992 limits assumed, chain 1 of 2)": "as the sequence (P06756 31-992 limits assumed, chain 1 of 2) above", "T4 sequence (P05556 21-728 limits assumed, chain 2 of 2)": "as the sequence (P05556 21-728 limits assumed, chain 2 of 2) above", "assay": "ELISA, integrin coated at 5 ug/ml, FLAG-Ang-2 10 ug/ml, anti-FLAG-HRP", "procedure": "as §1"}}, "data": [{"binder": "B1", "values": [{"measurement": "Ang-2-depedent Cell Adhesion Degree (%)", "setting": "[1]", "result": 35.1, "unit": "%"}, {"measurement": "% at RBD binding (mutant Ang-2 against native Ang-2)", "setting": "[2]", "result": 94.1, "unit": "%"}]}, {"binder": "B2", "values": [{"measurement": "binding result", "setting": "[3]", "result": "binds"}, {"measurement": "binding result", "setting": "[4]", "result": "binds"}, {"measurement": "binding result", "setting": "[5]", "result": "binds"}]}]}
